What was measured:
[1] = molecular target: human kallikrein (Haematologic Technologies) (human) (UniProt P03952); assay: apparent Ki (K1*) calculated from the IC50 as K1*=IC50/(1+(S/KM)), assuming competitive inhibition; chromogenic substrate S2305 1.8 mM, kallikrein 1.25 nM
[2] = molecular target: human kallikrein (Haematologic Technologies) (human) (UniProt P03952); assay: cell-based or functional assay

Sequence of human kallikrein (Haematologic Technologies) (human) (P03952 20-638 limits assumed): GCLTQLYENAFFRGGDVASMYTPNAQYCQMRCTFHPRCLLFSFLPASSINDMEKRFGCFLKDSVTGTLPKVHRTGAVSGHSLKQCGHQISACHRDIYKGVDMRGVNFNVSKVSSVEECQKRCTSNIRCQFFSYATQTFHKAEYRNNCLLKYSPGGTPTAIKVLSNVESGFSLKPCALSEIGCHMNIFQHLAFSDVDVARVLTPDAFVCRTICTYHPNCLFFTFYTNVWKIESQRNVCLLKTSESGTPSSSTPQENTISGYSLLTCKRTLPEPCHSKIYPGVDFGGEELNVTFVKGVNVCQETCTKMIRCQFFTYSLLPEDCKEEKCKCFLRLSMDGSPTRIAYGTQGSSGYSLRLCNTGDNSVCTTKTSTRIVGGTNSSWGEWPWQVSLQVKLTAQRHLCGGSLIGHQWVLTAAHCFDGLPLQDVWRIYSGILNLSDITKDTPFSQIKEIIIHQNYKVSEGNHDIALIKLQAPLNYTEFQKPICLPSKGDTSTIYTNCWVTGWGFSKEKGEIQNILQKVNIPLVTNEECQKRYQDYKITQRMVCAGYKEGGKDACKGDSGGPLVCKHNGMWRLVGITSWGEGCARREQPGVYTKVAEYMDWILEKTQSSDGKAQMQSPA

Ki [1]: 37 nM
inhibition of kallikrein enzymatic activity toward chromogenic substrate S2305 (IC50) [2]: 104 nM
Substance: PRO256 polypeptide (from UniProt O43278 36-465)

Source: US20020123091A1
